Test results taken from PMC11103113, “Evidence for dual targeting control of Arabidopsis 6-phosphogluconate dehydrogenase isoforms by N-terminal phosphorylation” (Journal of Experimental Botany, 2024).

How the values were obtained:
[1] = biological target: PGD2_new medial C420S (Arabidopsis thaliana) (UniProt Q9FWA3)
[2] = biological target: the molecule itself; assay: semi-native SDS-PAGE with anti-His immunoblot; His-PGD2 variants from cleared E. coli BL21minus extracts, sample buffer without SDS and DTT and without boiling; monomer to dimer

Binder | 6PGDH activity upon GFP-based pull-down from protoplasts, relative to the corresponding wild-type version (% of the corresponding wild-type version) [1] | stoichiometry N [2]
PGD2_new medial C420S (enzyme) MAVQPTRIGLAGLAVMGQNLALNIAEKGFPISVYNRTTSKVDETVERAKKEGNLPLYGFHDPESFVKSIQKPRVIIMLVKAGSPVDQTIKTLSAYLEKGDCIVDGGNEWYENTERREKAVAENGFLYLGMGVSGGEEGARNGPSMMPGGSYEAYKNIEDIVLKVAAQVRDSGPCVTYIGKGGSGNFVKMVHNGIEYGDMQLIAEAYDVLKSVGKLSNEELHSVFSDWNKGELESFLVEITADIFGIKDDKGDGHLVDKVLDKTGMKGTGKWTVQQAAELSVPAPTIESSLDARFLSGLKDERVQAAKVFKAGGFGDILTDQKVDKKQLVDDVRKALYASKICSYAQGMNLIRAKSIEKGWGLKLGELARIWKGGCIIRAIFLDRIKQAYDRNAELANLLVDPEFAKEIIERQSAWRRVVSLAINSGISTPGMSASLAYFDSYRRERLPANLVQAQRDYFGAHTYERTDVEGSFHTEWFKIARQSKI | 80 | 
His-PGD2 wild type (full-length protein) (enzyme, Arabidopsis thaliana, UniProt Q9FWA3 1-486, looked up, Arabidopsis thaliana PGD2 (At3g02360), full-length protein, cDNA cloned in pET16b; Cloning analogous to Hölscher et al. (2016); Found as monomer and dimer on the semi-native gel; source: E. coli BL21minus (G6PDH-deficient), in cleared extract) MAVQPTRIGLAGLAVMGQNLALNIAEKGFPISVYNRTTSKVDETVERAKKEGNLPLYGFHDPESFVKSIQKPRVIIMLVKAGSPVDQTIKTLSAYLEKGDCIVDGGNEWYENTERREKAVAENGFLYLGMGVSGGEEGARNGPSMMPGGSYEAYKNIEDIVLKVAAQVRDSGPCVTYIGKGGSGNFVKMVHNGIEYGDMQLIAEAYDVLKSVGKLSNEELHSVFSDWNKGELESFLVEITADIFGIKDDKGDGHLVDKVLDKTGMKGTGKWTVQQAAELSVPAPTIESSLDARFLSGLKDERVQAAKVFKAGGFGDILTDQKVDKKQLVDDVRKALYASKICSYAQGMNLIRAKSIEKGWGLKLGELARIWKGGCIIRAIFLDRIKQAYDRNAELANLLVDPEFAKEIIERQSAWRRVVCLAINSGISTPGMSASLAYFDSYRRERLPANLVQAQRDYFGAHTYERTDVEGSFHTEWFKIARQSKI |  | 2
